Experimental data taken from patent publication US20230416330A1, “Optimized GIP Peptide Analogues” (Antag Therapeutics ApS, priority 2019, published 2023).
Starred links: 1 amine or outer side, 2 acyl side, 3 side chain; linkers in the order of their positions; H or OH if unused. Non-standard residues stand in square brackets, D forms with d. Groups on a side chain read outwards from the residue. No end group written: not given here. *: point of attachment. C18 diacid = O=C(O)CCCCCCCCCCCCCCCCC(=O)*; C16 diacid = O=C(O)CCCCCCCCCCCCCCC(=O)*; γGlu = O=C(O)[C@H](CCC(=O)[*:2])N[*:1]; Glutaryl = O=C(CCCC(=O)[*:2])[*:1]; Nle = CCCC[C@H](N)C(=O)O; AEEA = NCCOCCOCC(=O)O; Aib = CC(C)(N)C(=O)O

B1: AT695 (peptide)
peptide: EGTFISEYSI[Aib]LEKIK([AEEA-AEEA-γGlu-C18 diacid])QQEFVEWLLAQKPSSGAPPPS-OH
modifications: N-terminus assumed
SMILES: CC[C@H](C)[C@H](NC(=O)[C@H](CCCCN)NC(=O)[C@H](CCC(=O)O)NC(=O)[C@H](CC(C)C)NC(=O)C(C)(C)NC(=O)[C@@H](NC(=O)[C@H](CO)NC(=O)[C@H](Cc1ccc(O)cc1)NC(=O)[C@H](CCC(=O)O)NC(=O)[C@H](CO)NC(=O)[C@@H](NC(=O)[C@H](Cc1ccccc1)NC(=O)[C@@H](NC(=O)CNC(=O)[C@@H](N)CCC(=O)O)[C@@H](C)O)[C@@H](C)CC)[C@@H](C)CC)C(=O)N[C@@H](CCCCNC(=O)COCCOCCNC(=O)COCCOCCNC(=O)CC[C@H](NC(=O)CCCCCCCCCCCCCCCCC(=O)O)C(=O)O)C(=O)N[C@@H](CCC(N)=O)C(=O)N[C@@H](CCC(N)=O)C(=O)N[C@@H](CCC(=O)O)C(=O)N[C@@H](Cc1ccccc1)C(=O)N[C@H](C(=O)N[C@@H](CCC(=O)O)C(=O)N[C@@H](Cc1c[nH]c2ccccc12)C(=O)N[C@@H](CC(C)C)C(=O)N[C@@H](CC(C)C)C(=O)N[C@@H](C)C(=O)N[C@@H](CCC(N)=O)C(=O)N[C@@H](CCCCN)C(=O)N1CCC[C@H]1C(=O)N[C@@H](CO)C(=O)N[C@@H](CO)C(=O)NCC(=O)N[C@@H](C)C(=O)N1CCC[C@H]1C(=O)N1CCC[C@H]1C(=O)N1CCC[C@H]1C(=O)N[C@@H](CO)C(=O)O)C(C)C
B2: AT693 (peptide)
peptide: EGTFISEYSIALEKIK([AEEA-AEEA-γGlu-C18 diacid])QQEFVEWLLAQKPSSGAPPPS-OH
modifications: N-terminus assumed
SMILES: CC[C@H](C)[C@H](NC(=O)[C@H](CO)NC(=O)[C@H](Cc1ccc(O)cc1)NC(=O)[C@H](CCC(=O)O)NC(=O)[C@H](CO)NC(=O)[C@@H](NC(=O)[C@H](Cc1ccccc1)NC(=O)[C@@H](NC(=O)CNC(=O)[C@@H](N)CCC(=O)O)[C@@H](C)O)[C@@H](C)CC)C(=O)N[C@@H](C)C(=O)N[C@@H](CC(C)C)C(=O)N[C@@H](CCC(=O)O)C(=O)N[C@@H](CCCCN)C(=O)N[C@H](C(=O)N[C@@H](CCCCNC(=O)COCCOCCNC(=O)COCCOCCNC(=O)CC[C@H](NC(=O)CCCCCCCCCCCCCCCCC(=O)O)C(=O)O)C(=O)N[C@@H](CCC(N)=O)C(=O)N[C@@H](CCC(N)=O)C(=O)N[C@@H](CCC(=O)O)C(=O)N[C@@H](Cc1ccccc1)C(=O)N[C@H](C(=O)N[C@@H](CCC(=O)O)C(=O)N[C@@H](Cc1c[nH]c2ccccc12)C(=O)N[C@@H](CC(C)C)C(=O)N[C@@H](CC(C)C)C(=O)N[C@@H](C)C(=O)N[C@@H](CCC(N)=O)C(=O)N[C@@H](CCCCN)C(=O)N1CCC[C@H]1C(=O)N[C@@H](CO)C(=O)N[C@@H](CO)C(=O)NCC(=O)N[C@@H](C)C(=O)N1CCC[C@H]1C(=O)N1CCC[C@H]1C(=O)N1CCC[C@H]1C(=O)N[C@@H](CO)C(=O)O)C(C)C)[C@@H](C)CC
B3: AT694 (peptide)
peptide: EGTFISEYSIA[Nle]EKIK([AEEA-AEEA-γGlu-C18 diacid])QQEFVEWLLAQKPSSGAPPPS-OH
modifications: N-terminus assumed
SMILES: CCCC[C@H](NC(=O)[C@H](C)NC(=O)[C@@H](NC(=O)[C@H](CO)NC(=O)[C@H](Cc1ccc(O)cc1)NC(=O)[C@H](CCC(=O)O)NC(=O)[C@H](CO)NC(=O)[C@@H](NC(=O)[C@H](Cc1ccccc1)NC(=O)[C@@H](NC(=O)CNC(=O)[C@@H](N)CCC(=O)O)[C@@H](C)O)[C@@H](C)CC)[C@@H](C)CC)C(=O)N[C@@H](CCC(=O)O)C(=O)N[C@@H](CCCCN)C(=O)N[C@H](C(=O)N[C@@H](CCCCNC(=O)COCCOCCNC(=O)COCCOCCNC(=O)CC[C@H](NC(=O)CCCCCCCCCCCCCCCCC(=O)O)C(=O)O)C(=O)N[C@@H](CCC(N)=O)C(=O)N[C@@H](CCC(N)=O)C(=O)N[C@@H](CCC(=O)O)C(=O)N[C@@H](Cc1ccccc1)C(=O)N[C@H](C(=O)N[C@@H](CCC(=O)O)C(=O)N[C@@H](Cc1c[nH]c2ccccc12)C(=O)N[C@@H](CC(C)C)C(=O)N[C@@H](CC(C)C)C(=O)N[C@@H](C)C(=O)N[C@@H](CCC(N)=O)C(=O)N[C@@H](CCCCN)C(=O)N1CCC[C@H]1C(=O)N[C@@H](CO)C(=O)N[C@@H](CO)C(=O)NCC(=O)N[C@@H](C)C(=O)N1CCC[C@H]1C(=O)N1CCC[C@H]1C(=O)N1CCC[C@H]1C(=O)N[C@@H](CO)C(=O)O)C(C)C)[C@@H](C)CC
B4: AT696 (peptide)
peptide: EGTFISEYSI[Aib][Nle]EKIK([AEEA-AEEA-γGlu-C18 diacid])QQEFVEWLLAQKPSSGAPPPS-OH
modifications: N-terminus assumed
SMILES: CCCC[C@H](NC(=O)C(C)(C)NC(=O)[C@@H](NC(=O)[C@H](CO)NC(=O)[C@H](Cc1ccc(O)cc1)NC(=O)[C@H](CCC(=O)O)NC(=O)[C@H](CO)NC(=O)[C@@H](NC(=O)[C@H](Cc1ccccc1)NC(=O)[C@@H](NC(=O)CNC(=O)[C@@H](N)CCC(=O)O)[C@@H](C)O)[C@@H](C)CC)[C@@H](C)CC)C(=O)N[C@@H](CCC(=O)O)C(=O)N[C@@H](CCCCN)C(=O)N[C@H](C(=O)N[C@@H](CCCCNC(=O)COCCOCCNC(=O)COCCOCCNC(=O)CC[C@H](NC(=O)CCCCCCCCCCCCCCCCC(=O)O)C(=O)O)C(=O)N[C@@H](CCC(N)=O)C(=O)N[C@@H](CCC(N)=O)C(=O)N[C@@H](CCC(=O)O)C(=O)N[C@@H](Cc1ccccc1)C(=O)N[C@H](C(=O)N[C@@H](CCC(=O)O)C(=O)N[C@@H](Cc1c[nH]c2ccccc12)C(=O)N[C@@H](CC(C)C)C(=O)N[C@@H](CC(C)C)C(=O)N[C@@H](C)C(=O)N[C@@H](CCC(N)=O)C(=O)N[C@@H](CCCCN)C(=O)N1CCC[C@H]1C(=O)N[C@@H](CO)C(=O)N[C@@H](CO)C(=O)NCC(=O)N[C@@H](C)C(=O)N1CCC[C@H]1C(=O)N1CCC[C@H]1C(=O)N1CCC[C@H]1C(=O)N[C@@H](CO)C(=O)O)C(C)C)[C@@H](C)CC

Target: T1, human GIP receptor (human, UniProt P48546 22-466)
T1 sequence (looked up): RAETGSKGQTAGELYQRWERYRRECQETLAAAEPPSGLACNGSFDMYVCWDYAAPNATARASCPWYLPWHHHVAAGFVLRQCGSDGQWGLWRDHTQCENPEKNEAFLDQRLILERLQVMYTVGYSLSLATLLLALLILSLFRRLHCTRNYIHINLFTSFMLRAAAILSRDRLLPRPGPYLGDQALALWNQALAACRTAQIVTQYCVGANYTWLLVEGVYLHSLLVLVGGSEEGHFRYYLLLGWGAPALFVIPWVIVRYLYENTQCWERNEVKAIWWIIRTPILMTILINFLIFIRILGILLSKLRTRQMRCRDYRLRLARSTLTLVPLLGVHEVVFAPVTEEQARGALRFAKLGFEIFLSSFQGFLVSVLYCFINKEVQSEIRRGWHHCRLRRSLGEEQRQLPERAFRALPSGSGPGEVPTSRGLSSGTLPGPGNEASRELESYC
Test: cell-based or functional assay

| Binder | cAMP antagonism % inhib (CisBio assay) | cAMP antagonism nM (IC50, CisBio assay) | cAMP antagonism pIC50 (CisBio assay) |
| --- | --- | --- | --- |
| B1 | 98% | 0.794 nM | 9.1 |
| B2 | 96% | 1.26 nM | 8.9 |
| EGTFISDYSI[Aib]LDKIK([AEEA-AEEA-γGlu-C18 diacid])QQDFVEWLLAQKPSSGAPPPS-OH [AT685] | 83% | 2 nM | 8.7 |
| EGTFISDYSI[Aib][Nle]DKIK([AEEA-AEEA-γGlu-C18 diacid])QQDFVEWLLAQKPSSGAPPPS-OH [AT686] | 82% | 3.42 nM | 8.5 |
| Glutaryl-GTFISDYSIA[Nle]DKIK([AEEA-AEEA-γGlu-C18 diacid])QQDFVEWLLAQKPSSGAPPPS-OH [AT702] | 85% | 3.55 nM | 8.5 |
| B3 | 88% | 1.47 nM | 8.8 |
| Glutaryl-GTFISDYSIA[Nle]DKIK(C16 diacid)QQDFVEWLLAQKPSSGAPPPS-OH [AT700] | 89% | 0.708 nM | 9.2 |
| EGTFISDYSIA[Nle]DKIK([AEEA-AEEA-γGlu-C18 diacid])QQDFVEWLLAQKPSSGAPPPS-OH [AT683] | 93% | 15.9 nM | 7.8 |
| B4 | 97% | 0.584 nM | 9.2 |
